Target: T1, EpCAM (UniProt P16422 P16422:24-265)
T1 sequence: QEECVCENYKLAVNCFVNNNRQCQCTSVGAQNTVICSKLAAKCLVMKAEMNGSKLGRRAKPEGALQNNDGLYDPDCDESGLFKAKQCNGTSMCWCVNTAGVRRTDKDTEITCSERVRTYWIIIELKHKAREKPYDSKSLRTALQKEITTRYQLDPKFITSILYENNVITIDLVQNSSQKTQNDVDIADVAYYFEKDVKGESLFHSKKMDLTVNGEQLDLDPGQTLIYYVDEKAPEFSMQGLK
Assay: stated only; no assay details

Binder: CCCCCCGAATCACATGACTTGGGCGGGGGTCG (ssDNA, 6-T 3' tail as spacer for biotin (shown in figure)) [Aptamer 4]
- binding result: binds
